Measured values as given in PMC4272287 (PLoS ONE, 2014).
Numbering of substitutions follows the chain as printed. Names may count otherwise.

B1: sdAb A3, anti-Staphylococcal Enterotoxin B single domain antibody (VHH)
VHH: EVQLVESGGGLVQAGDSLRLSCTASGRTFSRAVMGWFRQAPGKEREFVAAISAAPGTAYYAFYADSVRGRFSISADSAKNTVYLQMNSLKPEDTAVYYCAADLKMQVAAYMNQRSVDYWGQGTQVTVSS
notes: also called wild type sdAb A3
B2: sdAb A3 Construct 4 (Q3C Y118C) (VHH)
VHH: B1 VHH with Q3C, Y118C
notes: Keeps C22/C99
B3: sdAb A3 Construct 1 (A49C I73C) (VHH)
VHH: B1 VHH with A49C, I73C
notes: Keeps C22/C99
B4: sdAb A3 Construct 2 (A50C A108C) (VHH)
VHH: B1 VHH with A50C, A108C
notes: Keeps C22/C99
B5: sdAb A3 Construct 3 (V33C M105C) (VHH)
VHH: B1 VHH with V33C, M105C
notes: Keeps C22/C99

What follows are binders tested against T1, Staphylococcal enterotoxin B (Staphylococcus aureus, strain , UniProt P01552) (assay: SPR). Settings: both partners purified.
T1 construct: source: bought: Toxin technologies
T1 sequence (P01552 28-266): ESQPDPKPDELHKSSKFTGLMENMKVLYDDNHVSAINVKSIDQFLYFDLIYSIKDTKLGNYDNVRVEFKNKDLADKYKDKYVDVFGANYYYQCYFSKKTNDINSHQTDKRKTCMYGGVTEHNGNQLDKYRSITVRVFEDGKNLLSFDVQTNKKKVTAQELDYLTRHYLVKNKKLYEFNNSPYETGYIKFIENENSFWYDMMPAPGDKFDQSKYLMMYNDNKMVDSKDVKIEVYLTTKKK

Row | Binder | Kd [pM]
1 | B1 | 230
2 | B2 | 60
3 | B3 | 660
4 | B4 | 60
5 | B5 | 210
